# Assay results published in the Human Domainome abundance scans (Beltran et al. 2025).
# ± gives the uncertainty stated by the source.
# B1: Nucleosome-remodeling factor subunit BPTF, residues 2862 to 2918; numbered along this chain, Q12830 (parent)
# chain: TKKDTKLYCICKTPYDESKFYIGCDRCQNWYHGRCVGILQSEAELIDEYVCPQCQST
# Variants of: B1
# Test: abundance fitness (aPCA) (normalised: wild type 0, dead -1); higher = more abundant; growth selection in yeast, the domain comes from the species named
# Conditions: Homo sapiens
row,Variant,abundance fitness
1,TKKDTKLYCICKTPYDESKFYIGCDRCQNWYHGRCVQILQSEAELIDEYVCPQCQST [G37Q],-0.216 ± 0.15
2,TKKDTKLYCICKTPYDESKFYIGCDRCQNWYHGRCVLILQSEAELIDEYVCPQCQST [G37L],-0.411 ± 0.08
3,TKKDTKLYCICKTPYDESKFYIGCDRCQNWYHGRCVKILQSEAELIDEYVCPQCQST [G37K],-0.009 ± 0.1
4,TKKDTKLYCICKTPYDESKFYIGCDRCQNWYHDRCVGILQSEAELIDEYVCPQCQST [G33D],-0.229 ± 0.098
5,TKKDTKLYCICKTPYDESKFYIGCDRCQNWYHTRCVGILQSEAELIDEYVCPQCQST [G33T],-0.238 ± 0.13
6,TKKDTKLYCICKTPYDESKFYIGCDRCQNWYHKRCVGILQSEAELIDEYVCPQCQST [G33K],-0.271 ± 0.15
7,TKKDTKLYCICKTPYDESKFYIGCDRCQNWYHWRCVGILQSEAELIDEYVCPQCQST [G33W],-0.445 ± 0.097
8,TKKDTKLYCICKTPYDESKFYIGCDRCQNWYHNRCVGILQSEAELIDEYVCPQCQST [G33N],-0.357 ± 0.2
9,TKKDTKLYCICKTPYDESKFYIGCDRCQNWYHSRCVGILQSEAELIDEYVCPQCQST [G33S],-0.2 ± 0.071
10,TKKDTKLYCICKTPYDESKFYIGCDRCQNWYHIRCVGILQSEAELIDEYVCPQCQST [G33I],0.011 ± 0.14
11,TKKDTKLYCICKTPYDESKFYIGCDRCQNWYHVRCVGILQSEAELIDEYVCPQCQST [G33V],-0.098 ± 0.064
12,TKKDTKLYCICKTPYDESKFYIGCDRCQNWYHYRCVGILQSEAELIDEYVCPQCQST [G33Y],0.053 ± 0.12
13,TKKDTKLYCICKTPYDESKFYIGCDRCQNWYHMRCVGILQSEAELIDEYVCPQCQST [G33M],-0.446 ± 0.12
14,TKKDTKLYCICKTPYDESKFYIGCDRCQNWYHQRCVGILQSEAELIDEYVCPQCQST [G33Q],0 ± 0.093
15,TKKDTKLYCICKTPYDESKFYIGCDRCQNWYHFRCVGILQSEAELIDEYVCPQCQST [G33F],-0.192 ± 0.082
16,TKKDTKLYCICKTPYDESKFYIGCDRCQNWYHPRCVGILQSEAELIDEYVCPQCQST [G33P],0.053 ± 0.075
17,TKKDTKLYCICKTPYDESKFYIGCDRCQNWYHCRCVGILQSEAELIDEYVCPQCQST [G33C],0.196 ± 0.12
18,TKKDTKLYCICKTPYDESKFYIGCDRCQNWYHGRCQGILQSEAELIDEYVCPQCQST [V36Q],-0.862 ± 0.21
19,TKKDTKLYCICKTPYDESKFYIGCDRCQNWYHGRCLGILQSEAELIDEYVCPQCQST [V36L],-0.123 ± 0.074
20,TKKDTKLYCICKTPYDESKFYIGCDRCQNWYHGRCKGILQSEAELIDEYVCPQCQST [V36K],-0.531 ± 0.16
21,TKKDTKLYCICKTPYDESKFYIGCDRCQNWYHGRCYGILQSEAELIDEYVCPQCQST [V36Y],-0.957 ± 0.17
22,TKKDTKLYCICKTPYDESKFYIGCDRCQNWYHGRCAGILQSEAELIDEYVCPQCQST [V36A],-0.565 ± 0.098
23,TKKDTKLYCICKTPYDESKFYIGCDRCQNWYHGRCPGILQSEAELIDEYVCPQCQST [V36P],-0.983 ± 0.13
24,TKKDTKLYCICKTPYDESKFYIGCDRCQNWYHGRCCGILQSEAELIDEYVCPQCQST [V36C],-0.572 ± 0.14

row,Variant,abundance fitness
1,TKKDTKLYCICKTPYDESKFYIGCDRCQNWYHGRCMGILQSEAELIDEYVCPQCQST [V36M],-0.381 ± 0.12
2,TKKDTKLYCICKTPYDESKFYIGCDRCQNWYHGRCIGILQSEAELIDEYVCPQCQST [V36I],-0.109 ± 0.094
3,TKKDTKLYCICKTPYDESKFYIGCDRCQNWYHGRCNGILQSEAELIDEYVCPQCQST [V36N],-0.393 ± 0.13
4,TKKDTKLYCICKTPYDESKFYIGCDRCQNWYHGRCFGILQSEAELIDEYVCPQCQST [V36F],-0.832 ± 0.14
5,TKKDTKLYCICKTPYDESKFYIGCDRCQNWYHGRCWGILQSEAELIDEYVCPQCQST [V36W],-0.927 ± 0.22
6,TKKDTKLYCICKTPYDESKFYIGCDRCQNWYHGRCDGILQSEAELIDEYVCPQCQST [V36D],-0.801 ± 0.14
7,TKKDTKLYCICKTPYDESKFYIGCDRCQNWYHGRCSGILQSEAELIDEYVCPQCQST [V36S],-0.669 ± 0.092
8,TKKDTKLYCICKTPYDESKFYIGCDRCQNWYHGRCGGILQSEAELIDEYVCPQCQST [V36G],-0.863 ± 0.12
9,TKKDTKLYCICKTPYDESKFYIGCDRCQNWYHGRCHGILQSEAELIDEYVCPQCQST [V36H],-0.785 ± 0.18
10,TKKDTKLYCICKTPYDESKFYIGCDRCQNWYHGRCVGRLQSEAELIDEYVCPQCQST [I38R],-0.234 ± 0.075
11,TKKDTKLYCICKTPYDESKFYIGCDRCQNWYHGRCVGELQSEAELIDEYVCPQCQST [I38E],-0.44 ± 0.16
12,TKKDTKLYCICKTPYDESKFYIGCDRCQNWYHGRCVGHLQSEAELIDEYVCPQCQST [I38H],-0.342 ± 0.13
13,TKKDTKLYCICKTPYDESKFYIGCDRCQNWYHGRCVGKLQSEAELIDEYVCPQCQST [I38K],-0.278 ± 0.13
14,TKKDTKLYCICKTPYDESKFYIGCDRCQNWYHGRCVGPLQSEAELIDEYVCPQCQST [I38P],-0.428 ± 0.095
15,TKKDTKLYCICKTPYDESKFYIGCDRCQNWYHGRCVGTLQSEAELIDEYVCPQCQST [I38T],-0.146 ± 0.11
16,TKKDTKLYCICKTPYDESKFYIGCDRCQNWYHGRCVGGLQSEAELIDEYVCPQCQST [I38G],-0.489 ± 0.095
17,TKKDTKLYCICKTPYDESKFYIGCDRCQNWYHGRCVGMLQSEAELIDEYVCPQCQST [I38M],-0.084 ± 0.13
18,TKKDTKLYCICKTPYDESKFYIGCDRCQNWYHGRCVGLLQSEAELIDEYVCPQCQST [I38L],-0.014 ± 0.072
19,TKKDTKLYCICKTPYDESKFYIGCDRCQNWYHGRCVGALQSEAELIDEYVCPQCQST [I38A],-0.452 ± 0.1
20,TKKDTKLYCICKTPYDESKFYIGCDRCQNWYHGRCVGNLQSEAELIDEYVCPQCQST [I38N],-0.547 ± 0.11
21,TKKDTKLYCICKTPYDESKFYIGCDRCQNWYHGRCVGCLQSEAELIDEYVCPQCQST [I38C],-0.582 ± 0.098
22,TKKDTKLYCICKTPYDESKFYIGCDRCQNWYHGRCVGFLQSEAELIDEYVCPQCQST [I38F],-0.182 ± 0.1
23,TKKDTKLYCICKTPYDESKFYIGCDRCQNWYHGRCVGDLQSEAELIDEYVCPQCQST [I38D],-0.432 ± 0.1
